Consider 2 molecules from US20240101981A1 (LINNO PHARMACEUTICALS, published 2024).

This assay addresses T1, human transferrin (human, UniProt P02787 20-698).
T1 construct: mature; also called hTf; native human transferrin
In words: ELISA, biotinylated human transferrin on streptavidin plate, anti-hARSA detection. As to the method:
A 96-well plate was coated with streptavidin (0.1 μg/mL, 100 μL/well) and incubated overnight at 4° C.; after washing the plate three times with buffer PBST, the 96-well plate was blocked with 200 μL of PBST containing 1% bovine serum albumin (BSA) for 1 hour at room temperature. The plate was then washed three times with PBST, added with biotinylated human transferrin (1 μg/mL, 100 μL/well) and incubated at room temperature for 1 hour. […] The plate was then washed three times with PBST, added with goat anti-hARSA antibody (R&D, AF2485) (100 μL/well) at a concentration of 0.125 ug/mL to each well and incubated at room temperature for 1 hour. The plate was then washed three times with PBST, added with 100 μL anti-goat IgG-HRP to each well and incubated at room temperature for 0.5 hour, followed by the same washing steps aforementioned. The plate was then added with 100 μL/well of TMB substrate solution and incubated at room temperature for 15 minutes. The reaction was then stopped by adding 100 μL/well of the stop solution, and the absorbance was read at 450 nm using an ELISA reader.

T1 sequence (P02787 20-698): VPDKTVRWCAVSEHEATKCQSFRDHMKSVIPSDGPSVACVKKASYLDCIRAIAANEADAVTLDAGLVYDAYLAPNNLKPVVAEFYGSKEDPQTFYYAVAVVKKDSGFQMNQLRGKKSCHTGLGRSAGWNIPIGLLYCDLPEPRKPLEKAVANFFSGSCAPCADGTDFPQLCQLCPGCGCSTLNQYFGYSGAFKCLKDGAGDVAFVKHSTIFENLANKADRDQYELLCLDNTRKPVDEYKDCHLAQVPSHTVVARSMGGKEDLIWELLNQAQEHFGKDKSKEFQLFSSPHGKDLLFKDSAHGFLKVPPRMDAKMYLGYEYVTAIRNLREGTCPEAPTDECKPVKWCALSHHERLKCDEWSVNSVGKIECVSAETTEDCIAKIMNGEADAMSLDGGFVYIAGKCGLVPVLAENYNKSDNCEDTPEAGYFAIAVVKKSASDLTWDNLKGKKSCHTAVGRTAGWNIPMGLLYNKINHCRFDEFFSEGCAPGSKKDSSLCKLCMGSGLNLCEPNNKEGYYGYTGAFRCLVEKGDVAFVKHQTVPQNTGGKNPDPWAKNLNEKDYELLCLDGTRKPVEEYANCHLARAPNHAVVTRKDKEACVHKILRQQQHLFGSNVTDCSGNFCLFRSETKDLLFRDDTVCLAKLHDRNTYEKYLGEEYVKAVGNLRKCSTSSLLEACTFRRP

B1: hARSA (enzyme)
chain: RPPNIVLIFADDLGYGDLGCYGHPSSTTPNLDQLAAGGLRFTDFYVPVSLCTPSRAALLTGRLPVRMGMYPGVLVPSSRGGLPLEEVTVAEVLAARGYLTGMAGKWHLGVGPEGAFLPPHQGFHRFLGIPYSHDQGPCQNLTCFPPATPCDGGCDQGLVPIPLLANLSVEAQPPWLPGLEARYMAFAHDLMADAQRQDRPFFLYYASHHTHYPQFSGQSFAERSGRGPFGDSLMELDAAVGTLMTAIGDLGLLEETLVIFTADNGPETMRMSRGGCSGLLRCGKGTTYEGGVREPALAFWPGHIAPGVTHELASSLDLLPTLAALAGAPLPNVTLDGFDLSPLLLGTGKSPRQSLFFYPSYPDEVRGVFAVRTGKYKAHFFTQGSAHSDTTADPACHASSSLTAHEPPLLYDLSKDPGENYNLLGGVAGATPEVLQALKQLQLLKAQLDAAVTFGPSQVARGEDPALQICCHPGCTPRPACCHCPDPHA
notes: Control enzyme without the VHH; also called rhARSA; hARSA-his
Consider B1, for which the binding result was “no binding”.

B2: hARSA-9056VHH-his (other)
chain: RPPNIVLIFADDLGYGDLGCYGHPSSTTPNLDQLAAGGLRFTDFYVPVSLCTPSRAALLTGRLPVRMGMYPGVLVPSSRGGLPLEEVTVAEVLAARGYLTGMAGKWHLGVGPEGAFLPPHQGFHRFLGIPYSHDQGPCQNLTCFPPATPCDGGCDQGLVPIPLLANLSVEAQPPWLPGLEARYMAFAHDLMADAQRQDRPFFLYYASHHTHYPQFSGQSFAERSGRGPFGDSLMELDAAVGTLMTAIGDLGLLEETLVIFTADNGPETMRMSRGGCSGLLRCGKGTTYEGGVREPALAFWPGHIAPGVTHELASSLDLLPTLAALAGAPLPNVTLDGFDLSPLLLGTGKSPRQSLFFYPSYPDEVRGVFAVRTGKYKAHFFTQGSAHSDTTADPACHASSSLTAHEPPLLYDLSKDPGENYNLLGGVAGATPEVLQALKQLQLLKAQLDAAVTFGPSQVARGEDPALQICCHPGCTPRPACCHCPDPHAGGGGSGGGGSGGGGSEVQLVESGGGLVQPGGSLRLSCAASGHAYGGNYMGWFRQAPGKGLEGVAVLYTGGGSTYYADSVKGRFTISEDNSKNTVYLQMNSLRAEDTAVYYCALALGSARWYTSSLDARAYNIWGQGTLVTVSSGGGGSHHHHHH
notes: Expressed in HEK293F cells
As for B2, the binding result is on record as “binds”.
